From paper PMC9574550, “Protein engineering approach to enhance activity assays of mono-ADP-ribosyltransferases through proximity” (Protein Engineering, Design and Selection, 2022)

What was measured:
PARP16 = target: T1, PARP16 (Homo sapiens, UniProt Q8N5Y8); assay: homogeneous NAD+ conversion assay, dose-response; type: biochemical
T1 construct: catalytic fragment, MBP-PARP16-Dockerin (PARP16-Dock) on C8 scaffold
T1 sequence (Q8N5Y8 94-279 limits assumed): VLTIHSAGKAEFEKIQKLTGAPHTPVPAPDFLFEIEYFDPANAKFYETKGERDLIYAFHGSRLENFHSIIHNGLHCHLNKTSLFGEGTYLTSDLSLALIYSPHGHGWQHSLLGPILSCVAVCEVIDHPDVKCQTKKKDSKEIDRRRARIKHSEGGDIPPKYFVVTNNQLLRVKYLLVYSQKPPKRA

[1] = target: C8 scaffold (eight tandem repeats of H. thermocellum CipA cohesin 1) (Hungateiclostridium thermocellum) (UniProt Q06851); assay: SEC-MALS; 35 μM enzyme mixed with C8 scaffold in SEC buffer with 2 mM CaCl2, S200 Increase 10/300; ratio that resulted in no visible unbound PARP10-Dock (saturating conditions)
[2] = target: C8 scaffold (eight tandem repeats of H. thermocellum CipA cohesin 1) (Hungateiclostridium thermocellum) (UniProt Q06851); assay: SEC-MALS; 35 μM enzyme mixed with C8 scaffold in SEC buffer with 2 mM CaCl2, S200 Increase 10/300; apparent excess of PARP10-Dock (limited C8 scaffold)

| IC50 (PARP16) | stoichiometry N (PARP10-Dock per C8 scaffold) [1] | stoichiometry N (PARP10-Dock per C8 scaffold) [2] | Compound |
| --- | --- | --- | --- |
| 38 µM | – | – | CN(C)CC(=O)Nc1ccc2[nH]c(=O)c3ccccc3c2c1 [PJ34] |
| – | 7 | < 8 | PARP10-Dock (MBP-PARP10 catalytic fragment-Cel48S dockerin) (from UniProt A3DH67 673-739) (enzyme) |
